Test results: the nanobody polyreactivity screen of Harvey et al. (2022)

assay: yeast display, Sf9 membrane polyspecificity reagent, FACS + sequencing; frameworks hold sequencing errors
In short: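 Using colony PCR, genes from sorted yeast display clones were amplified, then sequenced on MiSeq at 2 × 250 and filtered by CDR length. The clones had been stained with 10% biotinylated, detergent-solubilized Sf9 membrane reagent for 1 hour at 4 °C and sorted by FACS into low and high (top ~1%) gates on anti-HA and streptavidin fluorescence. Polyreactivity labels come from the gate of origin.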

Sequence | polyreactivity (PSR sort gate)
QVQLVESGGGLVQAGGSIRLSCAASGRIFKAYAMGWYRQAPGKERELVAAITRGGRTKYADSVKGRFTLSRDNAKNTVYLQMNSLKPEYTAVYYCNPPRGVLYDYWGHGTQVTVSS | high polyreactivity
QVQLVESGGGLVQAGGSIRLSCAASGRIFRYNAMGWYRQAPGKERELVAAISGSGDRTYYADSVKGRFTISRDTAKNTVYLQMNSLKPEDTAVYDCAADVVWRQYGSWFYYWGQGTQVTVSS | high polyreactivity
QVQLVESGGGLVQAGGSIRLSCAASGRILYYYVMGWYRQAPGKERELVAAITRGGSTDYADSVKGRFTISRDNAKNTVYLQMNSLKPEDTAVFYCAVPSWPFWVRVEGDYWGQGTQVSVSS | low polyreactivity
QVQLVESGGGLVQAGGSIRLSCAASGRTFDPYSRGWYRQAPGKERELVAAISRSGGSTYYADSVKGRFTISRDNAKNTVYLQLNSLKPEDTAVYYFDADASRYYYEYDYWGQGTQVNVSS | high polyreactivity
QVQLVESGGGLVQAGGSIRLSCAASGRTFPVNAMGWYRQAPGKERELVAAITTNGGRTYYADSVKGRFTISRDNEKNTVYLQMNSLKPEDTAVYYCATGAYTDKRYGYWGQGTQVTVSS | high polyreactivity
QVQLVESGGGLVQAGGSIRLSCAASGSIFAPYAMGSYRQATGKVREFVAAISWSGGGTYYADSVQGRFTISRDNAKNTVNLQMNSLKPEDTAVYYCAAYRNKESIFRTILDYWGQGTQVTVSS | low polyreactivity
QVQLVESGGGLVQAGGSIRLSCAASGSIFVDNARGWYRPAPGKERELVAAIRSRDTSTYYADSVKGRFTISRDNAKHTVYLQMNSLKPEDTAVYYCAARTSKRVSQYNYWGQGTQVTVSS | high polyreactivity
QVQLVESGGGLVQAGGSIRLSCAASGSTYGTNTMGWSRQAPGKERELVAGITSGGNTNYADSVKGRFTISRDNAKNTVYLQMNSLKPEDSAVYYCAPRYIYYYAYGYNYWGQGTHVTVSS | high polyreactivity
QVQLVESGGGLVQAGGSIRLSCAASGTIFRSYAMGWYRQAPGKERELVAAITSSSGSTYYADSVKGRFTISRDNAKNTVYLQMNSLKPEDTAGYYFNAPYWKSRFRAYYHWGQGTQVTVSS | high polyreactivity
QVQLVESGGGLVQAGGSIRLTCAASGRIFYLNAMGWYRQAPGKEREMGAAITWSGGRTYYADSVKGRFTISRDNAKNTVYLQMNSLKPEDTAVYYCAAVPRPGPNTVLTPYGYWGQGTQVTVSS | high polyreactivity
QVQLVESGGGLVQAGGSIRSSCAASGRTFGSNAMGWSRQAPGKERELVAAISSTVSTNYADSVKGRFTISRDNAKNTVYLQMNSLKPEDTAVYYCNVTRHYSYVSEYDYWGQGTQVTVSS | low polyreactivity
QVQLVESGGGLVQAGGSLCLSCAGSGIFVYKAMGRYRQAPGKEREFVAAINKSGASTFYADSVKGRFTISRDNAKKTVYLQMNSLKPEDTAVYYCAKVPHVYRHYYYWGQGTQVTVSS | low polyreactivity
QVQLVESGGGLVQAGGSLGLSCAASGFTFHKYAMGWYRQAPGKERELVAAITSSGGSTYYADSVKGRFTISRDNAKNTVYLQMNSLKPEDTAVYYCAVGFYYFSSWYSYDYWGQGTQVTVSS | high polyreactivity
QVQLVESGGGLVQAGGSLGLSCAASGRSFYFYAMGWYRQAPGKERELVAALSRGGGTNYADSVKGRFTLSRDNATNTVYLQMNSLKPEDTAVYDCAARPGPYWTVTFRSPKYYYWGQGTQVTVSS | high polyreactivity
QVQLVESGGGLVQAGGSLGLSCAASGSNFHSYAMGWYRQAPGKERELVGAISWCGGSTNYSDSVKGRFTISRDNAKNTVYLQMNSLKPEDTAVYYCAAKEFGSDEYKTGSGYDYWGQCTQVTVSS | low polyreactivity
QVQLVESGGGLVQAGGSLGLSCAASGSTFQFYAMGWNRQAPGKERELVAAISWSSGSTYYADSVKGRFTISRDNAKNSVYLQMNSLKPEHTAVYYCNARYPWSYRYWDGGYWGQGTQVTVSS | low polyreactivity

Sequence | polyreactivity (PSR sort gate)
QVQLVESGGGLVQAGGSLLISCAASGSIFTCYAMGWYRQAPGKERELVAASTRGGSTYADSEKGRFTISRDNAKNTVYLQRKSLIPDVTGVYYCNAVYGVYDFKYWGQGTQVSVSS | low polyreactivity
QVQLVESGGGLVQAGGSLLLSCAASAFTSDVYAMGWYRQAPGKETELVADISARGGSTYYADSVKGRFTISRDNAKNTVYLQMNSLKPEDTAVYYCAAEVYVGTIGFYADFFYYPVYYWVQGTQVTVSS | low polyreactivity
QVQLVESGGGLVQAGGSLLLSCAASGFIFDYNAMGGYRPAPGKETELVAAISRSGGSTYADSVKGRFTFSRDNAMNTVYLQMNSLKPEDTAVYYCAADILSRSRSRRVDYWGQGTQVTVSS | low polyreactivity
QVQLVESGGGLVQAGGSLLLSCAASGFTFSGYVMGWYRQAPGKERELVAAISNSGGRTYADSVKGRFTISRDNAKNTVYLQMNSLKPEDTAVYYCAKKPGGFSQASRVDYDYWGQGTQVTVSS | low polyreactivity
QVQLVESGGGLVQAGGSLLLSCAASGFTFWNYAMGWYRQAPGKEMEFVASITWSGGSTYYADSVKGRFTISSDNAKNTVYLQMNSLKPEDTAVYYCAVGGSGYGLYGVGYALDYWGQGTQVTVSS | high polyreactivity
QVQLVESGGGLVQAGGSLLLSCAASGFTFYGYVMGWYRQAPGKERELVAGITWRGGSTYYADSVKGRFTISRDNAKNTVYLQMNSLKPEDTAVYYCAAKSFRRGTFDYWGQGTQVTVSS | high polyreactivity
QVQLVESGGGLVQAGGSLLLSCAASGGTIRYYAMGWSRQSPGKERELVAAISRGGTNTYYADSVKGRFTISRDNAKNTVYLQRNSLKPDDTAVYYCSAKRYSRYNYWGQGTQVTVSS | high polyreactivity
QVQLVESGGGLVQAGGSLLLSCAASGIIFGTNAMGWYRQAPGKERELVAGITSSGDSTYYADSVKGRFTISRDNAKNTVYLQMNSLKPEDTAVYYCAREIRTREFDSWGQGTQVTVSS | low polyreactivity
QVQLVESGGGLVQAGGSLLLSCAASGIIFTRYVMGWYRQAPGKERELVATIRIGGSTTYADSVKGRFTISRDNAKITVYLQMYSLKPEDTAVYYCAADTWYITTYGGAGSYAYGFYYWGQGTQVTVSS | low polyreactivity
QVQLVESGGGLVQAGGSLLLSCAASGITFKWNDMGWYRQAPGKEREFVAAITGSTGSTFYADSVKGRFTISRDNAKNSVYLQMNSLNTEDTAVYYCAAGPWFYYWGQGTQVTVSS | low polyreactivity
QVQLVESGGGLVQAGGSLLLSCAASGRILWRYAMGWYRQARGKERELVAGITYSGGRTYYADSVKVRFTISRDNAKNTVYLQMNSLKPEDTAVYYCNADYADSPYFYLLLDYWGQGTQVTVSS | low polyreactivity
QVQLVESGGGLVQAGGSLLLSCAASGSIYSYYAMGWYRQAPGKERELVAAISQSGGTTYYADSVKGRFTISRDNAKNTVYLQMNSLKPEDTAVYYCAARATSSFDTQYYYWGQGTQVTVSS | low polyreactivity
QVQLVESGGGLVQAGGSLLLSCAASGSTFAPYAMAWYRQAPRKERELVATISASGGTTYYADSVKGRFTISRDNAKNTVYLQMNSLKPEDTAVYYCAKRRVWWPAHRSYLYASEFGYWGQGTQVTVSS | low polyreactivity
QVQLVESGGGLVQAGGSLLLSCAASGSTFRYYAMGWYRPAPGKERELVAATTSGGSTYYADSVKGRFTISRDNAKNTVYLQMNSLKPEDTAVYYCAKSISRYFFYRPSAAAYGYDYWGQGTQVTVSS | high polyreactivity
QVQLVESGGGLVQAGGSLLLSCAASGSTFSYYAMGWYRPAPGKERELVATITKRGGSTYYADSVKGRFTISRDNAKNTFYVQLNSLKPEDTAVYDCAASYPSRWRATYPTGFEYWGQGTQVTVSS | high polyreactivity
